Patent US6570069B1, “Nucleic acids encoding plant inhibitors of apoptosis and transgenic cells and plants expressing them” (priority 2000, dated 2003)
“Also recorded” adds a separate entry of the source.

T1: caspase-7 (Homo sapiens, UniProt P55210)
T1 construct: His6 (C); made in house
T1 sequence (P55210 24-198 limits assumed): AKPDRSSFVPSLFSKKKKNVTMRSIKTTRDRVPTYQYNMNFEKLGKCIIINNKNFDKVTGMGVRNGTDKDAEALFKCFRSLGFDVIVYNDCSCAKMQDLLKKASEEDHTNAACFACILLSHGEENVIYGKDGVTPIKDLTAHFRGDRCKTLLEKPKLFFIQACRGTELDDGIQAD
T1 sequence (P55210 207-303 limits assumed): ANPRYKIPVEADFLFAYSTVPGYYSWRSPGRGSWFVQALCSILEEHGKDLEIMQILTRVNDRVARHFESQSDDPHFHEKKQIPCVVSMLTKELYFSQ


Tests used:
[1] = test system: Bax-induced apoptosis in HEK293 cells; assay: Bax-induced apoptosis in HEK293 cells (co-transfection, DAPI nuclear morphology); format: cell-based, human; details: IAP plasmid co-transfected with Bax into 293 cells; % apoptosis 24-36 hours later
Experimental: HEK293 and 293T cells were maintained in DMEM (Irvine Scientific) supplemented with 10% fetal bovine serum, 1 mM L-glutamine and antibiotics. 293 cells (10^6) were co-transfected using Superfect with 0.1 μg Green Fluoresence Protein (GFP) marker plasmid pEGFP (Clontech), 0.25 ug of either pcDNA3-Bax or pcDNA3-Fas, and 1.5 μg of either pcDNA3myc-SfIAP or pcDNA3myc-CpIAP. Alternatively, cells were co-transfected with 0.35 μg pcDNA3-caspase-9-Flag and 2.1 μg of either SfIAP or CpIAP. […] In some cases, lysates were prepared from transfected cells, normalized for total protein content, and analyzed by SDS-PAGE/immunoblotting as described (Deveraux, Q., et al., (1997) supra; Deveraux, Q. L., et al. (1998) supra; Roy, N. et al. (1997) supra; Takahashi, R., et al., (1998), supra.).
Baculoviral IAPs have been reported to protect mammalian cells from some apoptotic stimuli (Hawkins, C. J. et al., (1996) Proc. Natl. Acad. Sci. USA 93, 13786-13790; Hawkins, C. et al., (1998) Cell Death and Differentiation 5, 569-576; Uren, A. G. et al., (1996) Proc. Natl. Acad. Sci. USA 93, 4974-4978). Tests were performed to determine whether SfIAP is also capable of functioning as an apoptosis suppressor in a mammalian cell context. […]
Plasmids encoding various IAPs were co-transfected with Bax or Fas into 293 cells and % apoptosis was determined 24-36 hours later.

caspase-7 = target: T1, caspase-7; assay: Binding to recombinant purified caspase-7; design: species or system mammalian
Experimental: pGEX4T-1-SfIAP and pGEX4T-1 -CpIAP plasmids were introduced into E. coli strain BL21 (DE3) containing the plasmid pT-Trx. GST fusion proteins were obtained by induction with 0.05 mM IPTG at 25° C. for 8 hours, then purified using glutathione-Sepharose, essentially as described (Deveraux, Q., Welsh, K. & Reed, J. Methods of Enzymology in press). Caspases-3, and -7, containing C-terminal His6-tags, and caspase-8 containing an N-terminal His6-tag were purified as described previously (Stennicke, H. R. & Salvesen, G. S. (I1997) J. Biol. Chem. 272, 25719-25723; Stennicke, H., et al., (1998) J. Biol. Chem. 273, 27084-27090; Stennicke, H., et al., (1999) J. Biol. Chem. 274, 8359-8362). Caspase-9 lacking the CARD domain (ΔCARD-caspase-9) was constructed by truncating the cDNA and introducing a start codon substituting Val139. The resulting cDNA was subcloned into pET-23b and expressed in BL21 (DE3), yielding fully processed enzyme when cells were induced using 0.2 mM IPTG at OD600=0.6 for 4 hrs (Stennicke, H., Deveraux, Q., Humike, E., Reed, J., Dixit, V. & Salvesen, G. (1999) J. Biol. Chem. 274, 8359-8362). […] Concentrations of purified enzymes were determined from absorbance at 280 nm based on the molar absorption coefficients: caspase-3 (A280=26,000M−1 cm−1), caspase-7 (A280=24,500 M−1 cm−1), caspase-9 (A280=30,010M−1 cm−1). […]

[2] = test system: caspase-3 and similar DEVD-cleaving proteases in cell extracts treated with cyto c; assay: Cell-free caspase activation induced by cyto c in HEK 293 cytosolic extracts; format: biochemical, human; details: for suppression of pro-caspase-3 processing (immunoblot): cyto c-treated extracts; for effect on hydrolysis of Ac-DEVD-AFC (caspase activity): recombinant protein, cell extracts treated with cyto c
Experimental: Caspase activity was assayed by release of 7-amino-4-trifluoromethyl-coumarin (AFC) from Ac-DEVD or Ac-LEHD-containing synthetic peptides (Calbiochem) using continuous-reading instuments as described (Quan, L. T. et al., (1995) J. Biol. Chem. 270:10377-10379).
Cytosolic extracts were prepared as described (Deveraux, Q., Takahashi, R., Salvesen, G. S. & Reed, J. C. (1997) Nature 388, 300-303) using human embryonic kidney (HEK) 293 cells. Cells were washed with ice-cold buffer A (20 mM HEPES pH 7.5, 10 mM KCl, 1.5 mM MgCl2, 1 mM EDTA and 1 mM DTT), suspended in 1 volume of buffer A, incubated on ice for 20 mins, and then disrupted by 15 passages through a 26-gauge needle. Cell extracts were purified by centrifugation at 15000 g for 12 mins and supernatants were stored at −80 ° C. For initiating caspase activation, either 100 nM of purified recombinant caspase-8 or 1 μM horse heart cytochrome c (Sigma) together with 1 mM dATP was added to extracts (Deveraux, Q. L., et al., (1998) EMBO J. 17, 2215-2223).
To further explore the mechanisms by which SfIAP and CpIAP inhibit mammalian apoptosis, a cell-free system in which exogenously added active caspase-8 or cyto c induces activation of caspase-3 and similar proteases, as measured by hydrolysis of Ac-DEVD-AFC (Quan, L. T. et al., (1995) J. Biol. Chem. 270, 10377-10379) was used. Caspase-8 and cyto c trigger the same apoptosis pathways in extracts which are activated by Fas and Bax in intact cells.

Molecule | suppression of Bax-induced apoptosis [1] | binding to caspase-7 (caspase-7) | suppression of pro-caspase-3 processing (immunoblot) [2] | effect on hydrolysis of Ac-DEVD-AFC (caspase activity) [2]
CpIAP: baculoviral (CpGV) inhibitor of apoptosis protein; complete ORF expressed myc-tagged or as GST-fusion (protein, left off: a dimerising Fc or GST, complete ORF expressed myc-tagged or as GST-fusion) MSDLRLEEVRLNTFEKWPVSFLSPETMAKNGFYYLGRSDEVRCAFCKVEIMRWKEGEDPAADHKKWAPQCPFVKGIDVCGSIVTTNNIQNTTTHDTIIGPAHPKYAHEAARVKSFHNWPRCMKQRPEQMADAGFFYTGYGDNTKCFYCDGGLKDWEPEDVPWEQHVRWFDRCAYVQLVKGRDYVQKVITEACVLPGENTTVSTAAPVSEPIPETKIEKEPQVEDSKLCKICYVEECIVCFVPCGHVVACAKCALSVDKCPMCRKIVTSVLKVYFS | inhibited Bax-induced apoptosis | neither bound | suppressed the processing of pro-caspase-3 in cyto c-treated | completely blocked the hydrolysis of Ac-DEVD-AFC
SfIAP: cellular IAP cloned from Spodoptera frugiperda, protein of 377 amino acids (SEQ ID NO:3); GST-fusion when recombinant (protein, listed as Spodoptera frugiperda, GST fusion when recombinant; fall armyworm inhibitor of apoptosis protein (SfIAP)) MWSCSLPCWNTKKSGLQMDITKVASNGSSSTLTLFKSGSLEAKIRPLAPLMLPTPSYDSNAGSPSLSPSTPCSSSSFSIDKTDNHDTFGFSADTVDMRKEDERMKTFEKWPVSFLSGEQLARNGFYYLGRRDEARCAFCKVEIMRWVEGDDPAKDHQRWAPQCPFVRKLNGTAAADTGSSGQDECGARAAPSGTSPPRMAGPVHPRYASEAARLRSFKDWPRCMRQKPEELAEAGFFYTGQGDKTKCFYCDGGLKDWENHDVPWEQHARWFDRCAYVQLVKGREYVQKVISEACEVSASEAERDVAPARTAEPSPPAEAPENSVDDSKLCKICYAEERNVCFVPCGHVVACAKCALAADKCPMCRRTFQNAVRLYFS | inhibited Bax-induced apoptosis | neither bound | suppressed the processing of pro-caspase-3 in cyto c-treated | completely blocked the hydrolysis of Ac-DEVD-AFC; also recorded: able to inhibit cyto c-induced activation of DEVD-cleaving caspases
